Data from PMC11780864, “RNA G-quadruplex structure-based PROTACs for targeted DHX36 protein degradation and gene activity modulation in mammalian cells”.

T1: DHX36 (RHAU) (UniProt Q9H2U1 1-1008)
T1 sequence: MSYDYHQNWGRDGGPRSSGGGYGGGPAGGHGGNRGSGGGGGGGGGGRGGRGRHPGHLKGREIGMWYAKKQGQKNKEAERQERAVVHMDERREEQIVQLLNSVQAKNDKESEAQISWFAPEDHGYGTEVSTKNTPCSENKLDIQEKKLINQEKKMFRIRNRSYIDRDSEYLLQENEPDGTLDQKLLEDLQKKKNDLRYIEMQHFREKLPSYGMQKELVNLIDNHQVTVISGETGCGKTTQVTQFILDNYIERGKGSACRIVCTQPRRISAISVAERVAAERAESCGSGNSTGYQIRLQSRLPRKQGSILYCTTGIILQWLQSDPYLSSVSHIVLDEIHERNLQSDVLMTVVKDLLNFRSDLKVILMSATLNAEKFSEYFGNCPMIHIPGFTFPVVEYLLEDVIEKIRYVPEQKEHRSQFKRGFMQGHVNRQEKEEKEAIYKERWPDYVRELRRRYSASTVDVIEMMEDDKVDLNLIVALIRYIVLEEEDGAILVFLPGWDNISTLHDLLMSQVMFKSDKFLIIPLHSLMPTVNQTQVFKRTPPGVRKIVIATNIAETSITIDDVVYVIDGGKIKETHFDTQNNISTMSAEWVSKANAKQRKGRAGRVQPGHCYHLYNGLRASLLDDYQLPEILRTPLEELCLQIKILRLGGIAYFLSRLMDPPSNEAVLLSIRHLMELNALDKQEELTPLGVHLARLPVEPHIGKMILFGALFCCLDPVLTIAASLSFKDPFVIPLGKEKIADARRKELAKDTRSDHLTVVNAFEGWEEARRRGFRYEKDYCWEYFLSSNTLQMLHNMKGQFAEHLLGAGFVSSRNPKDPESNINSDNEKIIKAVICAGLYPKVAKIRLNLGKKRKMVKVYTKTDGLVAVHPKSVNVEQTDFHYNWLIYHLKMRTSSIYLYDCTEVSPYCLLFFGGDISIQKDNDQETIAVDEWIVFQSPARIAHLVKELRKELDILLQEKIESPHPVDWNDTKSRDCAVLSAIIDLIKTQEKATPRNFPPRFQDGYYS


Molecular target: T1, DHX36 (RHAU)
Test: MST; EMSA and MST: 25 mM Tris-HCl pH 7.5, 150 mM KCl, 1 mM MgCl2, 37 C 30 min; 30 nM (EMSA) or 40 nM (MST) FAM-oligo; EMSA gel 10% native PAGE, 0.5x TBE, 4 C
Details: protein: recombinant; for Kd: G4

Binder | Kd (label: 5'-FAM) [nM] | Kd (label: 3'-FAM) [nM] | other results
GGGCCGGCGGUGGGAGCGGAGUGGGUCGGGCGGGG (structured_RNA) [FAM_Gnai2 rG4 WT] | 37.9 ± 3.6 |  | 
GGGUUGCGGAGGGUGGGCCU (structured_RNA, 5'-hexynyl clicked to AHPC-PEG2 (VHL ligand)) [FAM_rG4_A_PEG2 (FAM_rG4_A)] |  | 79.7 ± 17.3 | 
CGGGGCGGGUGGGGAGGGGU (structured_RNA, printed with T although called rG4) [FAM_APP rG4 WT] | 19.7 ± 2.3 |  | 
GAGCCGGCGGUGAGAGCGGAGUGAGUCGAACGAAG (ssRNA) [FAM_Gnai2 rG4 Mut] |  |  | binding result (label: 5'-FAM, non-G4): no binding
TTGGGTGGGTGGGTGGGT (structured_DNA, 5'-hexynyl clicked to AHPC-PEG2) [FAM_dG4_A (T95-2T)] |  | 303 ± 55 | 
